One molecule from PMC10138348 (2023) can be followed below.

In assay [1] the target is T1, F4, TNFα-derived peptide with a myristoylated lysine and fluorescein-labelled cysteine in the +2 position (UniProt P01375, myristoyl residue on the lysine side chain; 5-acetamidofluorescein coupled to a cysteine residue at position +2). Kind of assay: FP; 0 uM BSA, no NAD+.
Assay [2] addresses T1, F4, TNFα-derived peptide with a …. The assay is described as follows: FP; 3 uM BSA, no NAD+.
Assay [3] has the same target. Kind of assay: FP; 0.3 uM BSA, no NAD+.

B1: SIRT2 (enzyme)
chain: MAEPDPSHPLETQAGKVQEAQDSDSDSEGGAAGGEADMDFLRNLFSQTLSLGSQKERLLDELTLEGVARYMQSERCRRVICLVGAGISTSAGIPDFRSPSTGLYDNLEKYHLPYPEAIFEISYFKKHPEPFFALAKELYPGQFKPTICHYFMRLLKDKGLLLRCYTQNIDTLERIAGLEQEDLVEAHGTFYTSHCVSASCRHEYPLSWMKEKIFSEVTPKCEDCQSLVKPDIVFFGESLPARFFSCMQSDFLKVDLLLVMGTSLQVQPFASLISKAPLSTPRLLINKEKAGQSDPFLGMIMGLGGGMDFDSKKAYRDVAWLGECDQGCLALAELLGWKKELEDLVRREHASIDAQSGAGVPNPSTSASPKKSPPPAKDEARTTEREKPQ
On to B1, for which the figures for the dissociation constant (Kd) in assay [1], in assay [2] and in assay [3] were 12.3 nM, 7 nM and 9.4 nM, respectively.

In general, Kd refers to the constant that tells how readily two partners part at equilibrium. A high value points to a looser complex.
